Source: patent publication US20110300156A1 (Genmab, published 2011)

T1: murine tissue factor (TF) on transfected HEK293F cells (murine, UniProt P20352 29-294)
T1 construct: whole, on cells; also called murine TF; TFmm
T1 sequence (looked up): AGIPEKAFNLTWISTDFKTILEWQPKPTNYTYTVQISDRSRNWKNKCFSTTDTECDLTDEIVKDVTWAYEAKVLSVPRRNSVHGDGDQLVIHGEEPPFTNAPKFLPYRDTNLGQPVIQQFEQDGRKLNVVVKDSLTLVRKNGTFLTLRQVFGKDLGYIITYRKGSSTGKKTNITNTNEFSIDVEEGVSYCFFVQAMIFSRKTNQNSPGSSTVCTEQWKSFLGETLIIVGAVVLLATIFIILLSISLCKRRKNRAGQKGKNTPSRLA

B1: anti-TF HuMab 044 (antibody, V domains shown)
VH: QVQLVESGGGVVQPGRSLRLSCAASGFTFSDYAMHWVRQAPGKGLEWVAVIPYDGDNKYYADSVKGRFTISRDNSKNTLYLQMNSLRAEDTAVYYCAREDWGLEVDYWGQGALVTVSS
VL: AIQLTQSPSSLSASVGDRVTITCRASQGINSALAWYQQKPGKAPKLLIYDASSLESGVPSRFSGSGSGTDFTLTISSLQPEDFATYYCQQFNSYPLTFGGGTKVEIK
notes: Human monoclonal antibody from HuMab mice
B2: anti-TF HuMab 025 (antibody, V domains shown)
VH: QVQLVESGGGVVQPGRSLRLSCAASGFTFSRYAMHWVRQAPGKGLEWVAVISNDGYNDYYADSVKGRFTVSRDNSKNTLYLQMNSLRAEDTAVYYCARDGQLGRGYFDYWGQGTLVTVSS
VL: EIVLTQSPATLSLSPGERATLSCRASQSVSSYLAWYQQKPGQAPRLLIYDASNRATGIPARFSGSGSGTDFTLTISSLEPEDFAVYYCQQRSNWPLTFGGGTKVEIK
notes: as for B1
B3: anti-TF HuMab 011 (antibody, V domains shown)
VH: EVQLLESGGGLVQPGGSLRLSCAASGFTFSNYAMSWVRQAPGKGLEWVSSISGSGDYTYYTDSVKGRFTISRDNSKNTLYLQMNSLRAEDTAVYYCARSPWGYYLDSWGQGTLVTVSS
VL: DIQMTQSPPSLSASAGDRVTITCRASQGISSRLAWYQQKPEKAPKSLIYAASSLQSGVPSRFSGSGSGTDFTLTISSLQPEDFATYYCQQYNSYPYTFGQGTKLEIK
notes: Human monoclonal antibody from HuMab mice; also called HuMab-TF-11
B4: anti-TF HuMab 042 (antibody, V domains shown)
VH: EVQLLESGGGLVQPGGSLRLSCAASGFTFSSYGMSWVRQAPGKGLEWVSVISGSGGTTYYADSVKGRFTISRDNSKNTLYLQMNSLRAEDTAVYYCAKAPWTYYFDYWGQGTLVTVSS
VL: not shown
notes: as for B1

Assays:
[1] = target: T2, human tissue factor (TF), membrane-bound on cells (human, UniProt P13726 33-295); test: FACS, A431 cells
T2 construct: whole, on cells; also called cellular TF
Protocol: (§1) Cells were resuspended in PBS (2×10⁶ cells/ml), put in 96-well V-bottom plates (50 μl/well). 50 μl of serially diluted HuMab in FACS buffer (PBS supplemented with 0.1% BSA and 0.02% Na-azide) was added to the cells and incubated for 30 minutes on ice. After washing three times with FACS buffer, 50 μl of phycoerythrin (PE)-conjugated goat anti-human IgGFc (Jackson ImmunoResearch), diluted 1:100 in FACS buffer, was added. After 30 minutes on ice (in the dark), cells were washed three times, and specific binding of the HuMabs was detected by flow cytometry on a FACSCalibur (BD Biosciences). HuMab-KLH was used as a negative control. Mouse anti-TF followed by PE-conjugated anti-mouse IgGFc was used as positive control. Binding curves were analyzed using non-linear regression (sigmoidal dose-response with variable slope) using GraphPad Prism V4.03 software (GraphPad Software, San Diego, Calif., USA).

[2] = target: T2, human tissue factor (TF), …; test: FACS, Bx-PC3 cells
Protocol: as §1

[3] = target: T2, human tissue factor (TF), …; test: FACS, MDA-MB-231 cells
Protocol: as §1

[4] = target: T2, human tissue factor (TF), …; test: cell-based or functional assay
[5] = target: T2, human tissue factor (TF), …; test: cell-based or functional assay; remark: listed apart in the source
TF (Innovin) [6] = target: T3, TF (Innovin) (UniProt P13726 33-295, limits assumed); test: cell-based or functional assay
[7] = target: T2, human tissue factor (TF), …; test: cell-based or functional assay; remark: listed apart in the source
[8] = target: T2, human tissue factor (TF), …; test: FACS, A431 cells, 30 µg/mL
Protocol: as §1

[9] = target: T2, human tissue factor (TF), …; test: FACS, Bx-PC3 cells, 30 µg/mL
Protocol: as §1

[10] = target: T2, human tissue factor (TF), …; test: FACS, MDA-MB-231 cells, 30 µg/mL
Protocol: as §1

[11] = target: T2, human tissue factor (TF), …; test: FACS, TF transfected CHO cells (S1015-TF)
Protocol: as §1

[12] = target: T2, human tissue factor (TF), …; test: FACS, TF transfected CHO cells (S1015-TF), 7.5 µg/mL
Protocol: as §1

[13] = target: T4, TFECDHis (extracellular domain of tissue factor, amino acid 1-251, with C-terminal His tag) (human, UniProt P13726 33-251); test: competition ELISA, inhibition of FVIIa (100 nM) binding to coated TFECDHis
T4 construct: range 1-251; The stated range 1-251 starts at residue 1 of NP-001984; also called extracellular domain of TF
Protocol: ELISA plates were coated overnight with TFECDHis (0.5 μg/mL, 100 μL per well). Plates were emptied, blocked with PBS containing 2% (v/v) chicken serum (1 hour, RT), and emptied again. […] Plates were washed and incubated with swine-anti-rabbit IgG-HRP antibody (1:2,500; DAKO). After washing, the immune complexes were visualized using ABTS as a substrate.

[14] = target: T1, murine tissue factor (TF) on …; test: FACS on transfected HEK293F cells, 30 µg/mL antibody [panel H]
TF (Innovin) [15] = target: T3, TF (Innovin); test: cell-based or functional assay; remark: listed apart in the source
[16] = target: T4, TFECDHis (extracellular domain of …); test: ELISA, coated TFECDHis, mean of 3
Protocol: The specificity of the obtained anti-TF HuMabs was evaluated by ELISA. ELISA plates (Microlon; Greiner Bio-One) were coated overnight at +4° C. with 0.5 μg/mL of TFECDHis in PBS, pH 7.4. Coated ELISA plates were emptied and blocked for one hour at room temperature with 2% (v/v) chicken serum (Gibco, Paisley, Scotland) in PBS and washed with PBS containing 0.05% Tween 20 (PBST). Subsequently, HuMabs, serially diluted in PBSTC (PBS supplemented with 2% (v/v) chicken serum and 0.05% (v/v) Tween-20), were incubated for 1 hr at RT under shaking conditions (300 rpm). Bound HuMabs were detected using HRP-conjugated goat-anti-human IgG antibodies (Jackson ImmunoResearch) diluted 1:5,000 in PBSTC, which were incubated for 1 hr at RT under shaking conditions (300 rpm). […] HuMab-KLH (a human monoclonal antibody against KLH (keyhole limpet haemocyanin)), was used as a negative control. Mouse anti-human TF (ERL) was used as positive control (HRP labeled anti-mouse IgG as conjugate). Binding curves were analyzed using non-linear regression (sigmoidal dose-response with variable slope) using GraphPad Prism V4.03 software.

[17] = target: T4, TFECDHis (extracellular domain of …); test: SPR BIAcore 3000, HuMab immobilized, TFECDHis analyte
Protocol: Antibody binding to TF was analyzed by surface plasmon resonance in a BIAcore 3000 (GE Healthcare). TFECDHis was used for the analysis. HuMab antibodies (500 resonance units) were immobilized on the CM-5 sensor chip according to the procedure recommended by the manufacturer. Briefly, after surface activation by EDC and NHS HuMab antibody was injected over the activated CM-5 surface in 10 mM sodium-acetate, pH ranging from 4.0 to 5.5 at 5 μl/min. followed by 1 M Ethanolamine for deactivation. Concentration series of TFECDHis in HBS-EP buffer were injected over the immobilized antibodies at a flow rate of 30 μl/min for 180 sec. Regeneration of the HuMab surface was performed by injection of 10 mM Glycine-HCl pH 2.0 or 10 mM sodium acetate pH 3.0. Kinetic analysis was performed using double reference subtraction and model 1:1 (langmuir) binding analysis.

[18] = target: T1, murine tissue factor (TF) on …; test: FACS on transfected HEK293F cells, 30 µg/mL antibody [panel E]
[19] = target: T2, human tissue factor (TF), …; test: FACS on AsPC-1 cells (~175.000 TF molecules/cell) [panel AsPC-1 cells]
Protocol: as §1
(§2) Binding of anti-TF HuMabs to membrane-bound TF on cell lines expressing different levels of TF was determined by FACS analysis, essentially as described supra. Mouse anti-TF antibody followed by PE-conjugated anti-mouse IgGFc was used as a positive control. Fluorescence was measured on a FACSCantoII. Binding curves were analyzed essentially as described supra, using GraphPad Prism 5 software. The amount of TF molecules on cell lines was determined by Qifi kit (Dako, Glostrup, Denmark), according to the manufacturer's instructions.

[20] = target: T2, human tissue factor (TF), …; test: FACS on SK-OV-3 cells (~60.000 TF molecules/cell) [panel SK-OV-3 cells]
Protocol: as §1
as §2, with “Mouse anti-TF antibody followed by PE-conjugated anti-mouse IgGFc was used as a positive control.” left out

[21] = target: T1, murine tissue factor (TF) on …; test: FACS on transfected HEK293F cells, 30 µg/mL antibody [panel B]
[22] = target: T2, human tissue factor (TF), …; test: FACS on MDA-MB-231 cells (~900.000 TF molecules/cell) [panel MDA-MB-231 cells]
Protocol: as §1, §2

[23] = target: T4, TFECDHis (extracellular domain of …); test: ELISA on coated extracellular domain of TF, detection with HRP-conjugated donkey anti-human H+L
[24] = target: T1, murine tissue factor (TF) on …; test: FACS on transfected HEK293F cells, 30 µg/mL antibody [panel G]

| EC50 [1] [nM] | EC50 [2] [nM] | EC50 [3] [nM] | % max inhibition of FVIIa induced ERK phosphorylation (A431) [4] [%] | IC50, inhibition of FVIIa induced ERK phosphorylation (A431) [4] [nM] | IC50, inhibition of FVIIa induced IL-8 release (MDA-MB-231) [5] [nM] | max inhibition of FVIIa induced IL-8 release (MDA-MB-231) [5] [%] | % max inhibition of FXa generation (TF (Innovin) [6]) [%] | EC50 of ADCC, A431 cells [7] [nM] | EC50 of ADCC, Bx-PC3 cells [7] [nM] | EC50 of ADCC, MDA-MB-231 cells [7] [nM] | Max MFI [8] | Max MFI [9] | Max MFI [10] | EC50 [11] [nM] | Max MFI [12] | max inhibition [13] [%] | IC50, inhibition of blood coagulation (TF induced clotting time) (TF (Innovin) [15]) [nM] | EC50 [16] [nM] | Kd [17] [nM] | other results | Binder |
| --- | --- | --- | --- | --- | --- | --- | --- | --- | --- | --- | --- | --- | --- | --- | --- | --- | --- | --- | --- | --- | --- |
| 1.45 | 1.88 | 0.87 | 45 | > 66.6 | 74.6 | 17.2 | 3 | 0.19 | 0.12 | 0.08 | 2650 | 1140 | 1880 | 2.13 | 5020 | 54 |  |  |  | IC50 [13]: 0.8 nM; binding result [14]: no binding (tested: 30 µg/mL) | B1 |
| 5.19 | 0.88 | 0.69 | 66 | 2.16 | 23.1 | 75.6 | 19 | 0.16 | 0.15 | 0.24 | 3170 | 1320 | 2250 | 0.73 | 5810 | 90 | 2.3 | 0.34 | 1.97 | IC50, inhibition of FXa generation (TF (Innovin) [6]): 0.3 nM; binding result [18]: no binding (tested: 30 µg/mL) | B2 |
| 0.2 | 1.01 |  |  |  |  |  |  |  |  |  | 2610 | 1280 | 2140 | 1.32 | 5650 |  | 1.6 | 0.16 | 3.15 | EC50 (read off the curve) [19]: ~0.07 µg/mL; EC50 (read off the curve) [20]: ~0.02 µg/mL; binding result [21]: no binding (tested: 30 µg/mL); EC50 (read off the curve) [22]: ~0.03 µg/mL; EC50 (read off the curve) [23]: ~0.1 µg/mL | B3 |
|  |  |  |  |  |  |  |  |  |  |  |  |  |  |  |  |  |  |  |  | binding result [24]: no binding (tested: 30 µg/mL) | B4 |
